Results on 40 sequences are retold here after the nanobody polyreactivity screen of Harvey et al. (2022).

The series can be described thus: yeast display, Sf9 membrane polyspecificity reagent, FACS + sequencing; frameworks hold sequencing errors. In outline: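 Polyreactivity labels are assigned by the sorting gate from which each nanobody was recovered. The gates were low and high (top ~1%), set on anti-HA fluorescence for expression and streptavidin fluorescence for reagent binding. Before sorting, galactose-induced (36–48 hours) yeast display cells were stained for 1 hour at 4 °C with 10% biotinylated, detergent-solubilized Sf9 membrane reagent.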
“QVQLVESGGGLVQAGGSLRLSCAASGSIFWTNAMGWYRQAPGKERELVARITYSGGSTYSADSVKGRFTISRDNAKNTVYLQMNSLKPEDTAVYYCNARTHGWPYSRYYYWGQGTQVTVSS”: the “polyreactivity (PSR sort gate)” value was “high polyreactivity”.
Take “QVQLVETGGGLVQAGGSLRLSCAASGSIAFNAMGWYTQAPGKERELVAAITWRVGSTYYADSVKGRFTISRDNAMNTVDLQMHSLKTEDTAVYYCAARRTAGAYYGYNYWGQGTQVTVSS”: the “polyreactivity (PSR sort gate)” value is “high polyreactivity”.
Regarding “QVQLVESGGGLVQAGGSLRLSCAASGRTFRYYDMGWYRQSPGKERELVARISISGAGTYYADSVKVRFTISRDNAKNNVYLQMNSLKPEDTAVYYCAADLFWWQKTNSGGDYWGQGTQVTVSS”, the “polyreactivity (PSR sort gate)” value is “low polyreactivity”.
“QVQLVESGGGLVQAGGSLRLSCAPSGFTFDPYAMGWYRQAPGKERELVAAIDYSGGTTYYADSVKGRFTISRDNAKNTVYLQMNSLKPEDTAVYYCAAEYTYYHWWGYDYWGQGTQVTVSS”: the “polyreactivity (PSR sort gate)” value was “high polyreactivity”.
The same measure for “QDQLVESGGGLVQAGGSLRLSFAASGSTFFTYPMGWYRQDPGKERELVAAITLNGGSTYYADSVKGRFTISRDNAKNTVYLQMISLKPEDTAVYYCAAEVPDTDYNYWGQGTQVTVSS”: “low polyreactivity”.
With “QVQLVESGGGLVQAGGSLRLSCAASGFIFYDYAMGWYRQAPGKERELVAGITDSGGSTSYADSVKGRFTISRDNAKNTVYLHMNSLKPEDTAVYYCAADNYVRAGINYDYWGQGTQVTVSS”, the “polyreactivity (PSR sort gate)” value is reported as “low polyreactivity”.
The entry for “QVQLVDSGGGLVQAGGSLRFSCAASGSIFYSNAMGWYRQAPGKERELVAAISDGGTSTYYADSVKVRFTISRDNAKNTVYLQMNSLKPEDTAVYYCAAESTLQDWNWYKYYYWGQGTQVTVSS” is “low polyreactivity”.
With “QVQLVESGGGLVQAGGSLRLSCAASGFIFGTYAMGWYRQAPGKEREFVAAINWGGGRTYYADSVKGRFTISRDNAKNTVYLQMNSLKPEDTAVYYCNKRLIYYRGTYYSRRFDYWGQGTQVTVSS”, the “polyreactivity (PSR sort gate)” value was “high polyreactivity”.
On to “QVQLVESGGGLVQAGGSLRLSCAASGSIFLYNAMGWYRPAPRKERELVAAISKSGGSTYYADSVKGRFTISRDNAKNTVYLQMNSLKPEDSAVYYCAAGYGRRIRYGSDYDYWGQGTQVTVSS”, for which the “polyreactivity (PSR sort gate)” value was “low polyreactivity”.
The same measure for “QVQLVESGGGLVQAGGSLRLSCAASGSTLNDYTMGWYRQAPGKERELVAAIRVSGARTFYADSVKGRFTISRDNAKNTVYLQMNSLKPEDTAVYYCAARWYIANPLSPSDYWGQGTQVTVSS”: “low polyreactivity”.
Regarding “QVQLVESGGGLVQAGGSLRLSCAASGNIFVYNAMGWYRQAPGKERELVAAISWTGGSTYYADSVKGRFTISRDNAKNTVYLQMNSLKPEDTAVYYCAKSFGIWHARWLTYDYWGQGTQVTVSS”, the “polyreactivity (PSR sort gate)” value is “low polyreactivity”.
The entry for “QVQLVESGGGLVHAGGSLRLSCAAPGRTSRYYVMGWYRQAPGKERELVAAISKNGGSTYYADSVKGRFTISRDNAKNTVYLQMNSLKPEDTAVYFCAASYYPFSYGHGYDYWGQGTQVTVSS” is “high polyreactivity”.
In the case of “QVQLVESGGGLVQAGGSLRLSCADSGRTFRNYAMGRYRQAPGKERELVATITSSGASTYYADSVKGRFTISRDNAKNTVYLQMNSLKPEDTAVYYCAARPYTGRYFLGYYYWGQGTQVTVSS”, the “polyreactivity (PSR sort gate)” value is listed as “high polyreactivity”.
“QVQLVESGGGLVQAGGSLRLSCAASGSIFDSYTMAWYRQEPGKEREFVAAISRGGGSTYYADSVKGRFTISRDNAKNTVYLQMNSLKPEDTAVYYCAASSYLNSRFKFDYWGQGTQVTVSS”: the “polyreactivity (PSR sort gate)” value is on record as “low polyreactivity”.
As for “QVQLVESGGGLVQAGGSLRLSCAASGRTFRWYTMGWYRQAPGKEREFVAAITWSGSSTNYADSVKGRFTISRDNAKNTVYLQMNSLKPEDTAVYYCAAENRRRRDDYWGQGTQVTVSS”, the “polyreactivity (PSR sort gate)” value was “high polyreactivity”.
Regarding “QVQLVESGGGLVQAGGSLRLSCAASGSILVHYAMGWYRPAPGKEWELVAAISSVGSTNYADSVKGRFTMTRDNAKNTVYLQMNSLKPEDTAVYYCAARASRWYIAVDYWRQGTQVTVSS”, the “polyreactivity (PSR sort gate)” value is given as “low polyreactivity”.
The same measure for “QVQLVESGGGLVQAGGSLRLSCAASGRTFFSYVMGWYRPAPGKEREFVAAISRSGGNTYYADSVMGRFTISRDNAKNTVYLQMNSLKPEETAVYYCNKPQRILYDYWGHGTQVTVSS”: “high polyreactivity”.
As to “QVQLVESGGGLVQAGGSLRLSSPASGRTIRSYAMGSYRQAPGKERELVAAINSSGGSTYYADSVKARFTISRDNAKNTVYLQMNSLKPEDTAVYYCNTDYSSTSPWRAANYWGQGTQVTVSS”, the “polyreactivity (PSR sort gate)” value is on record as “high polyreactivity”.
“QVQLVESGGGLVQAGGSLRLSCAASGINFDDNTMGWYRQAPGKERELLAAISSSGGSTYYADSVKGRFTISRDNAKNTVYFQMNSLNPEDTAVYYCAAADYYTYPYIVYRNYPEFDYWGQGTQVTVSS”: the “polyreactivity (PSR sort gate)” value was “low polyreactivity”.
With “QVQLVESGGGLVQAGGSLRLSCAASGSTFGRYAMGWYREAPGKERELVAGITYGSTYYADSVKGRVTISRDNAKNTVYLPMNSLKPEDTAVYACAADLSYTSVHGYRSETLMDYWGQGTQVTVSS”, the “polyreactivity (PSR sort gate)” value is listed as “low polyreactivity”.
The same measure for “QVQLVESGGGLVQAGGSLRLSCAASGFTFRGYAMGWYRPAPGKERELVAAITVRGGRTYYADSVKGRFTISRDNAKNTVYLQMNSLKPEETALYYCAKPVDRYTYSLYQQYDYWGQGTQVTVSS”: “high polyreactivity”; for “QVQLVHSGGGLVQAGGSLRLSCAASGITIWYYAMGWYRQAPGKERELVAAISWRGGSTYYADSVKGRFTISRDYAKNTVNLQMNSLKPEATAVYYCAAGYSLLYTYEYWGQGTQVTVSS”: “high polyreactivity”.
In the case of “QLQLEESGGGLVQAGGTLRISCEASGSTFRPYAMGAYRKAPGQEREMVARITGSGDSTYYADSVKGRFTISRDNAQNTVYLQMNSLKPEDNAVYYCARDFDYSLSGFEYWGQGTQVTVSS”, the “polyreactivity (PSR sort gate)” value is “low polyreactivity”.
The same measure for “QVQLVESGGGLVQAGGSLRLSCAASGFIFYPYAMGWYRQATGKETELVAAITWSGGTTTYADSEKGRFTISRDNAKNTVYLQMNSLKPEDTAVYSCAALWYYGRYPYDYWGQGTQVTVSS”: “high polyreactivity”; for “QVQLVESGGGLVQAGGSLRLSCAASGSTFYSNAMGWYRQAPGKERELVARISWIGTSTYYADSVKGRFTISRDNAKNTVYLQMNSLKPEDTAVYDCAAGTVGPRRRRYIWLDYWGQGTQVTVSS”: “high polyreactivity”.
As for “QVQLVESGGGLVQAGGSLRLSCADSGSGGYAMGWYRQAPGKERELVAAIDNGGSTYYADSVKGRFTISRDNAKNTVYLQMNSLKPEDTAVYYCAAAYRDYTQVTAGDYWGQGTQVTVSS”, the “polyreactivity (PSR sort gate)” value is “low polyreactivity”.
The same measure for “QVQLVESWGGLVQAGGSLRLSCADSGRTFTVNAMGWYRQAPGKETEFVAAISGRSGRTSYADSVKGRFTISRDNAKNTVYLQMNCLKPEDTAVYYCNASGGYSTGSRYDYWGQGTQVTVSS”: “high polyreactivity”.
“QVQLVESGGGLVQAGGSLRLSCAASGSTLVKYAMGWYRQAPGKERELVAAISWSGGRTYYADSVKGRFTISRDNAKNNVYLQMNSLKPEDTAVYYCAARRKAVRYDYWGQGTQVTVSS”: the “polyreactivity (PSR sort gate)” value is “high polyreactivity”.
As for “QVQLVESGGGLVQAGGSLRLSCAASGYTFYANAMGWYRQAPGKEREFVASITWSGGSTYYADSVKGRFTISRDNAKNTVYLQMNSLKPEDTAVYYCNTDLTYPYPNVEVLVYGFKLDYWGQGTQVTVSS”, the “polyreactivity (PSR sort gate)” value is recorded as “low polyreactivity”.
Take “QVQLVESCGGLVQAGGSLRLSCAASGFTFWRYAMGWYRQAPGKERELVAAISRTGGRTYYADSVKGRFTISRDNAKNTVYLQMNSLKPEDTAVYYCAAVKYETYRYNYDYWGQGTQVTVSS”: the “polyreactivity (PSR sort gate)” value is “high polyreactivity”.
As for “QVQLVESGGGLVQAGGSLPLSCAASGSTFNKYTMGWSRQPPGKERELVAAITSGDSTYYADSVKGRFTISRDNAKNTVYLQMNSLKPDDTAVYYCAKSLRAYRHVIYGKPFYSWGQGTQVTVSS”, the “polyreactivity (PSR sort gate)” value was “low polyreactivity”.
The same measure for “QFQLVESGVGLVQAGARLRLSSAASGFTIKYYAMGWYRQAPGKERELVATITRGGSTNYADSVKGRFTISRDNAKNTVYLQMNSLNPEDTAVYYCAKGYPYYYYDYDSWGQGTQVTVSS”: “high polyreactivity”; for “QVQLVESGGGLVQAGGSLRLSCAASGLTFRGYTMGWYRQAPGKERELVARITYSGGSTYYADSVKGRFTISRDNAKNTVYLQMNSLKPEDTAVYYCAKEIWRHWTGDYWGQGTQVTVSS”: “high polyreactivity”; for “QVQHVESAGGLVQAGGSLRLSCAASGITFKVYAMGWYRQAPGKERELVATISRSDAGTSYADSVKGRFTISRDNAKNTVYLQMNSLKPEDTAVYYCAATYVSKKTHTKYDYWGQGTQVTVSS”: “high polyreactivity”.
Take “QVQLVESGGGVVQAGRSLRLSCAASGRLFYEYAMGWYRQAPGKEREFVAAISYSGSRTYYADSVKGRFTISRDNAKYTVYLQLNCLIPEDTAVYYCAAVVAFGTGTFYYWGQGRQVTVSS”: the “polyreactivity (PSR sort gate)” value is “high polyreactivity”.
For “QVQLVESGGGLVQAGGSLRLICAASGRILYYNVMVWYRQAPGKEREMVASITSVVSTNYADSVKGRFTISRDNAKNTVYLQMNSLKPEDTAVYYCAARYFSGSYSDQIWGMDYWGQGTQLTVSS”, the “polyreactivity (PSR sort gate)” value is on record as “high polyreactivity”.
Regarding “QVQLVESGGGLVQAGGSLRLSCAASGSIFEQYAMGWYRKAPGKERELVAAISSGGSTNYADSVKGRFTISRDNAKNTVYLQMNSLKPEDTAVYYCAAAYYTVGWLYYDYWYPFAYYYWGQGTQVTVSS”, the “polyreactivity (PSR sort gate)” value is “low polyreactivity”.
Regarding “QVQHEESGGGLVQAGGSLRLSCASSGLIFKFSAMGWYRQAPGKERELVAAITSRGGSTYYADSVKGRFTISRDNAKNTVYFQMNSLKPEDTEVYYCAADVRTQHYNAQYDYWGQGTQVTVSA”, the “polyreactivity (PSR sort gate)” value was “high polyreactivity”.
Take “QVQLVESGGGLVQAGGSLRLSCAASGITFRRNAMGWYRQAPGKERELVAAISLSGTRTYYADSVKGRFTISRDNAKNTVYLQMNSLKPEDTAVYYCAASYYNKFDYWGQGTQVTVSS”: the “polyreactivity (PSR sort gate)” value was “high polyreactivity”.
On to “NVQLVESGGGLVQAGGSLRLSCAASGRTFNGYAMGWYRQAPGKERDLVASISWSGGRTYYADSVKGRFTISRDNAKNTVYLQMNSLKPEDTAVYYCAATFVNVVGYDYWGQGTQVTVSS”, for which the “polyreactivity (PSR sort gate)” value is on record as “high polyreactivity”.
